Publication PMC5750209, “Structural basis for DNA 3′-end processing by human tyrosyl-DNA phosphodiesterase 1”

B1: 5IdU(-3) 20-mer (ssDNA)
DNA: GTAGAGGATCTAAAAGAUTT
modifications: 5-iodouracil (5-iodo-dU) at nt 18
B2: -2T 12-mer duplex (dsDNA)
DNA 1: CAATGCGCATTG
DNA 2: CAATGCGCATTG
B3: -2G 12-mer duplex (dsDNA)
DNA 1: CACTGCGCAGTG
DNA 2: CACTGCGCAGTG
B4: 5IdU(-2) 20-mer (ssDNA)
DNA: GTAGAGGATCTAAAAGACUT
modifications: 5-iodouracil (5-iodo-dU) at nt 19

Tests used:
Tdp1(Δ148) H263A = Tdp1(Δ148) H263A (Homo sapiens, UniProt Q9NUW8 149-608, H263A); test: UV cross-linking (312 nm), SDS-PAGE and MS; cross-link via F259; Cross-linking: 10 mM Tris-HCl pH 7.5, 100 mM KCl, 5 µM each, 15 min room temperature then 15 min on ice, UV 312 nm 30 min on ice. Crystal complex: 50 mM HEPES pH 7.8, 50 mM NaCl, on ice, 110 µM complex; settings: protein: recombinant; tags: N-terminal His6; label: 5' 32P (tracer); 3' biotin-TEG; single strand
Tdp1(Δ148) [1] = biological target: T1, Tdp1(Δ148) (Homo sapiens, UniProt Q9NUW8 149-608); test: X-ray crystal structure (3.18 Å); product complex; Cross-linking: 10 mM Tris-HCl pH 7.5, 100 mM KCl, 5 µM each, 15 min room temperature then 15 min on ice, UV 312 nm 30 min on ice. Crystal complex: 50 mM HEPES pH 7.8, 50 mM NaCl, on ice, 110 µM complex; settings: protein: recombinant; tags: N-terminal His6; chain copies: 2; blunt, self-complementary, 2 copies of one strand
Tdp1(Δ148) [2] = biological target: T1, Tdp1(Δ148); test: X-ray crystal structure (2.04 Å); 3'-phosphorylated product complex; Cross-linking: 10 mM Tris-HCl pH 7.5, 100 mM KCl, 5 µM each, 15 min room temperature then 15 min on ice, UV 312 nm 30 min on ice. Crystal complex: 50 mM HEPES pH 7.8, 50 mM NaCl, on ice, 110 µM complex; settings: protein: recombinant; tags: N-terminal His6; chain copies: 2; blunt, self-complementary, 2 copies of one strand

T1 sequence (Q9NUW8 149-608, stated change not applied): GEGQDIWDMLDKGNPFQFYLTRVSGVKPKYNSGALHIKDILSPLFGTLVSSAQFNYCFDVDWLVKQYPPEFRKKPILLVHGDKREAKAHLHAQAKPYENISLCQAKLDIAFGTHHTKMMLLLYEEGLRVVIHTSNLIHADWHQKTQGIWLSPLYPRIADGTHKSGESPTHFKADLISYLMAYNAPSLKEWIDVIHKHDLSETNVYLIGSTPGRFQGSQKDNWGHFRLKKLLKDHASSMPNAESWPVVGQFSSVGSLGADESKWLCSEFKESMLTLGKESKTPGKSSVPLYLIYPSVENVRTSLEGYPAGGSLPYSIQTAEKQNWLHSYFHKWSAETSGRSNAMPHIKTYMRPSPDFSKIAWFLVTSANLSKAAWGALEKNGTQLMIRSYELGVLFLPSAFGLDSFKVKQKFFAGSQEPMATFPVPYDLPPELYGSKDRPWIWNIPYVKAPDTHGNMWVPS
Sequence of Tdp1(Δ148) H263A (Q9NUW8 149-608 H263A): as the sequence (Q9NUW8 149-608, stated change not applied) above, with H115A counted along it

| Binder | binding result (Tdp1(Δ148) H263A) | also measured |
| --- | --- | --- |
| B1 | binds | – |
| B2 | – | binding result (Tdp1(Δ148) [1]): binds |
| B3 | – | binding result (Tdp1(Δ148) [2]): binds |
| B4 | binds | – |
